Experimental data reported in the Immune Epitope Database (IEDB).

Assays:
Assay in all cases: IEDB peptide-MHC binding, purified MHC/competitive/radioactivity; filed as Kd, often an IC50 or EC50 that approximates it; ≥ and ≤ were set here for values at or beyond the usual limits of such assays
HLA-A*31:01 = target: HLA-A*31:01
HLA-A*11:01 = target: HLA-A*11:01
HLA-A*68:01 = target: HLA-A*68:01
HLA-A*03:01 = target: HLA-A*03:01
HLA-A*33:01 = target: HLA-A*33:01
[1] = source organism: Vaccinia virus WR
[2] = source organism: Dengue virus 3 Martinique/1243/1999
[3] = source organism: Lassa virus Josiah
[4] = source organism: Dengue virus 2 Jamaica/1409/1983
[5] = source organism: Dengue virus 1 Brazil/97-11/1997
[6] = source organism: Mammarenavirus machupoense
[7] = source organism: Mammarenavirus guanaritoense
[8] = source organism: Mammarenavirus brazilense
[9] = source organism: SARS coronavirus Tor2
[10] = source organism: Dengue virus 4 Philippines/H241/1956

Sequence | Kd (HLA-A*31:01; [1]) | Kd (HLA-A*11:01; [1]) | Kd (HLA-A*68:01; [1]) | Kd (HLA-A*03:01; [1]) | Kd (HLA-A*33:01; [1]) | also measured
FFRKLVLTNK | 200 nM | 390 nM | 3730 nM | 1020 nM | 0.243 µM | 
TSEHGGRAYR |  |  |  |  |  | Kd (HLA-A*31:01; [2]): 72.4 nM
MATMLEYVRY | 1620 nM | 21.8 nM | 116 nM | 588 nM | 13.5 µM | 
FLALGFFLRK |  |  |  |  |  | Kd (HLA-A*03:01; [2]): 29.1 nM
TSFYLISIFL |  |  |  |  |  | Kd (HLA-A*03:01; [3]): 8080 nM; Kd (HLA-A*33:01; [3]): ≥ 31.1 µM
AAVTLNRIK | 9300 nM | 4760 nM | 3160 nM | ≥ 34800 nM | ≥ 27.1 µM | 
VLKIVRNMEK |  |  |  |  |  | Kd (HLA-A*03:01; [4]): 82.8 nM
DLISYGGGWR |  |  |  |  |  | Kd (HLA-A*33:01; [5]): 1.39 µM
VMANNVKKK | 3910 nM | 215 nM | 6170 nM | 31.8 nM | ≥ 75.2 µM | 
LTMQRLLANH |  |  |  |  |  | Kd (HLA-A*31:01; [6]): 1860 nM; Kd (HLA-A*11:01; [6]): 1850 nM; Kd (HLA-A*68:01; [6]): 1610 nM; Kd (HLA-A*03:01; [6]): 876 nM; Kd (HLA-A*33:01; [6]): 8.44 µM
HAFDAPTLY | ≥ 48400 nM | 185 nM | 30.3 nM | 33.9 nM | ≥ 77.7 µM | 
VCEEFFHQK |  |  |  |  |  | Kd (HLA-A*31:01; [7]): ≥ 22200 nM; Kd (HLA-A*11:01; [7]): 621 nM; Kd (HLA-A*68:01; [7]): 5950 nM; Kd (HLA-A*03:01; [7]): 11600 nM; Kd (HLA-A*33:01; [7]): ≥ 77.7 µM
TLSPAHLINK | 168 nM | 1.29 nM | 120 nM | 2.05 nM | 11.4 µM | 
LIMFEQYFIY | 14000 nM | 134 nM | 1720 nM | 1030 nM | 8.19 µM | 
PSAEDNYLAK | ≥ 20300 nM | 8.64 nM | 5710 nM | ≥ 32200 nM | 4.12 µM | 
NLEMIDERK | 9460 nM | 1110 nM | 49.4 nM | ≥ 70000 nM | ≥ 77.7 µM | 
LLNSMMNRDK | 690 nM | 1780 nM | ≥ 70200 nM | 39.2 nM | ≥ 27.5 µM | 
PVIVVPVIDR | 13200 nM | ≥ 21600 nM | 16.7 nM | 4820 nM | 9.18 µM | 
LINRFTMKHK |  |  |  |  |  | Kd (HLA-A*03:01; [4]): 12.5 nM
LCCSLDHSK |  |  |  |  |  | Kd (HLA-A*31:01; [7]): 811 nM; Kd (HLA-A*11:01; [7]): ≥ 38400 nM; Kd (HLA-A*68:01; [7]): ≥ 32700 nM; Kd (HLA-A*03:01; [7]): ≥ 33700 nM; Kd (HLA-A*33:01; [7]): 7.34 µM
SVTLDFTKFH |  |  |  |  |  | Kd (HLA-A*31:01; [8]): 10100 nM; Kd (HLA-A*11:01; [8]): 7100 nM; Kd (HLA-A*68:01; [8]): 18400 nM; Kd (HLA-A*03:01; [8]): 7520 nM; Kd (HLA-A*33:01; [8]): 9.44 µM
IAARILSEK | 4550 nM | 13.5 nM | 11.8 nM | 14.9 nM | 4.87 µM | 
SAVFKDSFLR | 23.9 nM | 45.9 nM | 18.2 nM | 664 nM | 0.372 µM | 

Sequence | Kd (HLA-A*31:01; [1]) | Kd (HLA-A*11:01; [1]) | Kd (HLA-A*68:01; [1]) | Kd (HLA-A*03:01; [1]) | Kd (HLA-A*33:01; [1]) | also measured
YTVEFDRDK | ≥ 33400 nM | 18900 nM | 1.25 nM | ≥ 78000 nM | ≥ 44.8 µM | 
LLDSYFVVK |  |  |  |  |  | Kd (HLA-A*31:01; [9]): 1270 nM; Kd (HLA-A*11:01; [9]): 47.2 nM; Kd (HLA-A*68:01; [9]): 2060 nM; Kd (HLA-A*03:01; [9]): 40.3 nM; Kd (HLA-A*33:01; [9]): 12.7 µM
SAVVDNKLK | ≥ 58900 nM | 508 nM | 580 nM | ≥ 23600 nM | ≥ 77.7 µM | 
VIVVPVIDR | 9910 nM | 675 nM | 279 nM | ≥ 78000 nM | ≥ 77.7 µM | 
SFNMLKRAR |  |  |  |  |  | Kd (HLA-A*31:01; [5]): ≥ 34200 nM; Kd (HLA-A*33:01; [5]): 0.01 µM
KLTYQNKVVK |  |  |  |  |  | Kd (HLA-A*03:01; [2]): 66.1 nM
RMLNILNRRR |  |  |  |  |  | Kd (HLA-A*31:01; [4]): 1.6 nM
LMNVITLVYK |  |  |  |  |  | Kd (HLA-A*31:01; [9]): 742 nM; Kd (HLA-A*11:01; [9]): 23.7 nM; Kd (HLA-A*68:01; [9]): 748 nM; Kd (HLA-A*03:01; [9]): 10.6 nM; Kd (HLA-A*33:01; [9]): 5.64 µM
ALEYLSELK | 8550 nM | 178 nM | 3480 nM | 988 nM | ≥ 77.7 µM | 
NSFIISTLNK | 648 nM | 0.447 nM | 19.2 nM | 416 nM | 4.46 µM | 
HLRVLFSIFY | 1010 nM | 4970 nM | 2080 nM | 37.5 nM | 1.85 µM | 
SIPPTAGILK |  |  |  |  |  | Kd (HLA-A*11:01; [10]): 16.5 nM; Kd (HLA-A*03:01; [10]): 216 nM
WQLMYFHRR |  |  |  |  |  | Kd (HLA-A*31:01; [5]): 4410 nM
TMCTEETKR | 2980 nM | ≥ 77900 nM | 121 nM | ≥ 78000 nM | 12.4 µM | 
EISSNDNAK | ≥ 55600 nM | 443 nM | 31 nM | 16800 nM | 9.6 µM | 
TTGIGYQPYR |  |  |  |  |  | Kd (HLA-A*31:01; [9]): 105 nM; Kd (HLA-A*11:01; [9]): 1140 nM; Kd (HLA-A*68:01; [9]): 9.5 nM; Kd (HLA-A*03:01; [9]): 6450 nM; Kd (HLA-A*33:01; [9]): 1.74 µM
ISLGLILLK |  |  |  |  |  | Kd (HLA-A*11:01; [10]): 1.21 nM; Kd (HLA-A*03:01; [10]): 31.2 nM
TSAYLISIFL |  |  |  |  |  | Kd (HLA-A*33:01; source organism: Lymphocytic choriomeningitis virus (strain WE)): 2.17 µM
SSMVNGVVK |  |  |  |  |  | Kd (HLA-A*11:01; source organism: Dengue virus 1 Singapore/S275/1990): 73.4 nM
DTSEVHWNYK |  |  |  |  |  | Kd (HLA-A*68:01; [10]): 6.73 nM
VSILASSLLR |  |  |  |  |  | Kd (HLA-A*31:01; [2]): 872 nM; Kd (HLA-A*11:01; [2]): 514 nM; Kd (HLA-A*68:01; [2]): 468 nM; Kd (HLA-A*33:01; [2]): 0.2 µM
RTYSDPLALK |  |  |  |  |  | Kd (HLA-A*11:01; [2]): 36.1 nM; Kd (HLA-A*68:01; [2]): 29.3 nM; Kd (HLA-A*03:01; [2]): 3.61 nM
